Test results: US7563760 (GENETICS INSTITUTE, dated 2009)

Key:
[1] = target: T1, E-selectin expressed on CHO cells (CHO:E-selectin) (UniProt P16581 22-610, limits assumed); assay: plate coated with chimera; adhesion of 3H-labelled CHO:E-selectin cells (FIG. 15)
T1 construct: whole, on cells; also called E-selectin expressing CHO cells; CHO cells which express E-selectin
T1 sequence (looked up): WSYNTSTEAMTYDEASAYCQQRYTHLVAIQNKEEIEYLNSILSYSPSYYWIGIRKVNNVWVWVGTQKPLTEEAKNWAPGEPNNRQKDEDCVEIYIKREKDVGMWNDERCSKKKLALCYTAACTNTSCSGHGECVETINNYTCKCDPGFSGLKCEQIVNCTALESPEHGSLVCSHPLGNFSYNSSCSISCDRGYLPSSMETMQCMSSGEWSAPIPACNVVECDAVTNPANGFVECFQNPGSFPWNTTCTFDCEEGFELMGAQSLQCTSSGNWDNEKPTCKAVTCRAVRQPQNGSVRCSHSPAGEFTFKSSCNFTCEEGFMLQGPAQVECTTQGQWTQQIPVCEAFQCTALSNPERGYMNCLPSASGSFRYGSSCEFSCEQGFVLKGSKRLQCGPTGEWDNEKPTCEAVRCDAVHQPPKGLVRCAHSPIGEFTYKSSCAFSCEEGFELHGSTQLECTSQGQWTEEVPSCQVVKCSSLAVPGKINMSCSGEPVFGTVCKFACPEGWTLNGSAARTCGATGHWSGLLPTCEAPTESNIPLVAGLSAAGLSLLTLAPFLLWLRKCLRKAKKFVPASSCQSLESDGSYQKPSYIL
Procedure: Quantitative adhesion of CHO:P-selectin, CHO:E-selectin and CHO:L-selectin expressing cells was performed as described in Example 4(c), with the following modifications: COS cell and antibodies were omitted. Instead, 48-well microtiter plates (Costar) were coated for 16 hours at 4° C. with varying quantities of protein A-purified soluble PSGL-1/Fc chimeras. The unbound material was removed and the coated wells were treated with Hank's buffered saline (HBS) with 1 mg/ml BSA and 2 mM CaCl_2 for 1 hour at 4° C. Tritium labeled CHO selectin expressing cells were added and binding quantitated as described in Example 4(c).

[2] = target: T2, chimeric protein comprising the extracellular domain of human E-selectin and the Fc portion of human IgG1 … (human, UniProt P16581 22-556); assay: affinity precipitation from 35S-labelled COS membrane lysates (FIG. 29A)
T2 construct: extracellular domain; Built analogously to LEC-γ1; also called soluble E-selectin chimera; immobilized E-selectin; not shown: Fc portion of human IgG1
T2 sequence (looked up): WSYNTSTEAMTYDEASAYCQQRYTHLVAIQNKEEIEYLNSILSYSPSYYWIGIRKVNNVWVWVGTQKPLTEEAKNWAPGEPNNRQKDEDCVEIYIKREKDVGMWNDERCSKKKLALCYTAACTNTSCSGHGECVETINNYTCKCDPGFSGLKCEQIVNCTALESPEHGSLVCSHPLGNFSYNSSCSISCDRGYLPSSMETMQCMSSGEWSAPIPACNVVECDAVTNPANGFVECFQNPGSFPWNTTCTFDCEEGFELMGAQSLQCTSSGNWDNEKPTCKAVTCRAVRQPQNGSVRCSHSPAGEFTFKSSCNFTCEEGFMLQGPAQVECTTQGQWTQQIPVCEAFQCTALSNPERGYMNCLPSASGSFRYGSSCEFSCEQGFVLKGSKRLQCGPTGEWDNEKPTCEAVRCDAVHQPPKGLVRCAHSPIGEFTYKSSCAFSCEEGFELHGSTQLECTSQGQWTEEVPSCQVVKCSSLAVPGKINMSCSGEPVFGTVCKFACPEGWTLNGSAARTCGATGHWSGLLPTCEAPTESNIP
Procedure: (§1) The labeled cells were washed, incubated with EGTA to loosen them from the dish surface, scraped from the dish, pelleted, and suspended in cold 10 mM PIPES buffer, pH 7.5, containing 100 mM KCl, 3 mM NaCl, 3.5 mM MgCl_2, and protease inhibitors (see above). Membrane extraction then was carried out by sonication, low speed centrifugation, high speed centrifugation, and solubilization in membrane lysis buffer as above, for labeled myeloid cells.
(§2) Affinity Precipitations. Membrane extracts were diluted 1:4 or 1:5 with cell lysis buffer or with TBSC buffer (20 mM TrisHCl, 150 mM NaCl, 2 mM CaCl_2, pH 7.5) supplemented with 5 mg/ml bovine serum albumin (approximately 99%, Sigma). Extracts thus diluted to 0.2-0.25% Triton X-100 were incubated with human IgG_1-Protein A Sepharose with end-over-end mixing at 4° C. overnight. […] The resins were washed 5 or more times in buffer containing 0.1-0.5% Triton X-100 until the radioactivity of the wash supernatants was reduced to background level. […]
(§3) COS cells were cotransfected with cDNAs encoding either PSGL-1 or CD43 and either Fuc-TIII or Fuc-TVII. […] The precipitated products were evaluated by SDS-PAGE/autoradiography following their release by EDTA/EGTA (for selectin mediated binding) or by boiling in SDS (for immunoprecipitations).

[3] = target: T3, LEC-γ1, chimeric form of P-selectin conjugated to the Fc portion of a human IgGγ1 (human, UniProt P16109 42-771); assay: affinity precipitation from 35S-labelled COS membrane lysates
T3 construct: extracellular domain; Built by known methods (Aruffo et al. 1991), made in CHO DUKX cells; also called P-selectin/IgG chimera; P-selectin/Fc chimera; not shown: Fc portion of a human IgGγ1
T3 sequence (looked up): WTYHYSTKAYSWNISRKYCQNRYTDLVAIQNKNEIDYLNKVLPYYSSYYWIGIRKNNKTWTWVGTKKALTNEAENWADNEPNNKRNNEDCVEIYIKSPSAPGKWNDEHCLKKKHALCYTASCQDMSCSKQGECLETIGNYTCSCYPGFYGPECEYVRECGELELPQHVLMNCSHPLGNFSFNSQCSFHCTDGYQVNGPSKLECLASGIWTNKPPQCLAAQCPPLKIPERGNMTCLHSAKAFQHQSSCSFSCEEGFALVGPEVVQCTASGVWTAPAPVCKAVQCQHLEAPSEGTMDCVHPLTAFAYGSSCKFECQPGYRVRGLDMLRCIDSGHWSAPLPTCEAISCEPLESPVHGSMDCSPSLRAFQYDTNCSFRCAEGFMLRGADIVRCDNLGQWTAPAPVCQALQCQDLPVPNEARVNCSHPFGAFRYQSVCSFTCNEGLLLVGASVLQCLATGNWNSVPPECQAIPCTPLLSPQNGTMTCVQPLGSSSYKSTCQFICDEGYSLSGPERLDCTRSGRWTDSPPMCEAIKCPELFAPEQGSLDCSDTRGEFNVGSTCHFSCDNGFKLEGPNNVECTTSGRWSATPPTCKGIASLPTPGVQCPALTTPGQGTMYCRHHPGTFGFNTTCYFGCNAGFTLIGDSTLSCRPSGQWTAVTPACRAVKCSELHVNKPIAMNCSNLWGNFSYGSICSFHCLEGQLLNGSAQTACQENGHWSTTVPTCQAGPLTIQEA
Procedure: as §1, §2, §3

[4] = target: T4, P-selectin expressed on the surface of CHO cells (CHO:P-selectin cell line) (UniProt P16109 42-830, limits assumed); assay: conditioned medium coated on plastic dishes; adhesion of CHO:P-selectin cells
T4 construct: whole, on cells; also called P-selectin expressing CHO cells
T4 sequence (looked up): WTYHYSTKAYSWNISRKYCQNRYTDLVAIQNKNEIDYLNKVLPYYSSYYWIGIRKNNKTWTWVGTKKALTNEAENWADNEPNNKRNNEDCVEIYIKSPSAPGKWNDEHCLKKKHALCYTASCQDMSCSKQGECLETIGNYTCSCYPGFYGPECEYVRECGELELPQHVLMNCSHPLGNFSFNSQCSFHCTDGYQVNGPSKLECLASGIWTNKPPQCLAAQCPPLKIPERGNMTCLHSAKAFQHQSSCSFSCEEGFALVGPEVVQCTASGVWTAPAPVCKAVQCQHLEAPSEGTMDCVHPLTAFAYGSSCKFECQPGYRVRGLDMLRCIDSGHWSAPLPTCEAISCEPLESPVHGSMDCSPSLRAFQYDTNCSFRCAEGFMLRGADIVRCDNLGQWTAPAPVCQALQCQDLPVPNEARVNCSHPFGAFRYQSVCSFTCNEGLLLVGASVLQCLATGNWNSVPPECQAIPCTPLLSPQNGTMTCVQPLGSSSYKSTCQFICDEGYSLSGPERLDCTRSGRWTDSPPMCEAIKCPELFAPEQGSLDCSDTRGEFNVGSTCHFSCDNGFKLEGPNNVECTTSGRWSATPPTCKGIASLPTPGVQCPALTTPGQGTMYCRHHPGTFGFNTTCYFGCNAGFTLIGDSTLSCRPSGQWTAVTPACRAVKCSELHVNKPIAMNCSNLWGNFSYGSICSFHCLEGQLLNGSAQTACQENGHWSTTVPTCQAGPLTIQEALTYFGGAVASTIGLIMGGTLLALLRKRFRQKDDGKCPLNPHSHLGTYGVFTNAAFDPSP
Procedure: COS cells were co-transfected with the pED.sPSL.T7 plasmid of Example 5(C), the pEA.3/4FT cDNA of Example 2, and a plasmid containing the PACE cDNA as set forth in SEQ ID NO:5. A parallel control co-transfection was done using only the pED.sPSL.T7 plasmid and the pEA.3/4FT plasmid. After 45 hours, conditioned medium from these transfected COS cells was coated onto plastic dishes and binding to CHO:P-selectin cells (Example 4) was determined.

Row | Binder | binding result [1] | binding result [2] | binding result [3] | fold increase in bound CHO:P-selectin cells against P-selectin ligand not co-expressed with PACE [4] [fold]
1 | 148.Fc, P-selectin ligand-IgG chimera with amino acids 42-189 of SEQ ID NO:2 (Fc fusion, tyrosine residues of the anionic region (46, 48, 51 of SEQ ID NO:2) are the major site of sulfation; glycosylated, co-expressed with 3/4FT, also called pED.148.Fc product; pED.149.Fc; not shown: NotI junction/linker of pED.Fc; Fc region of a human IgG1 from pED.PSL.Fc) QATEYEYLDYDFLPETEPPEMLRNSTDTTPLTGPGTPESTTVEPAARRSTGLDAGGAVTELTTELANMGNLSTDSAAMEIQTTQPAATEAQTTPLAATEAQTTRLTATEAQTTPLAATEAQTTPPAATEAQTTQPTGLEAQTTAPAAM | binds | – | – | –
2 | FFFE.148.Fc (Fc fusion, glycosylated, co-expressed with 3/4FT, also called pED.FFFE.148.Fc product; not shown: NotI junction/linker of pED.Fc; Fc region of a human IgG1) QATEFEFLDFEFLPETEPPEMLRNSTDTTPLTGPGTPESTTVEPAARRSTGLDAGGAVTELTTELANMGNLSTDSAAMEIQTTQPAATEAQTTPLAATEAQTTRLTATEAQTTPLAATEAQTTPPAATEAQTTQPTGLEAQTTAPAAM | binds | – | – | –
3 | recombinant CD43 (pFCD43) from COS cells co-transfected with Fuc-TIII (other, UniProt P16150 20-400, looked up, co-expressed with Fuc-TIII, Membrane detergent extract; also called recombinant leukosialin) STTAVQTPTSGEPLVSTSEPLSSKMYTTSITSDPKADSTGDQTSALPPSTSINEGSPLWTSIGASTGSPLPEPTTYQEVSIKMSSVPQETPHATSHPAVPITANSLGSHTVTGGTITTNSPETSSRTSGAPVTTAASSLETSRGTSGPPLTMATVSLETSKGTSGPPVTMATDSLETSTGTTGPPVTMTTGSLEPSSGASGPQVSSVKLSTMMSPTTSTNASTVPFRNPDENSRGMLPVAVLVALLAVIVLVALLLLWRRRQKRRTGALVLSRGGKRNGVVDAWAGPAQVPEEGAVTVTVGGSGGDKGSGFPDGEGSSRRPTLTTFFGRRKSRQGSLAMEELKSGSGPSLKGEEEPLVASEDGAVDAPAPDEPEGGDGAAP | – | no binding | no binding | –
4 | recombinant CD43 (pFCD43) from COS cells co-transfected with Fuc-TVII (other, UniProt P16150 20-400, looked up, co-expressed with Fuc-TVII, Membrane detergent extract; also called recombinant leukosialin) STTAVQTPTSGEPLVSTSEPLSSKMYTTSITSDPKADSTGDQTSALPPSTSINEGSPLWTSIGASTGSPLPEPTTYQEVSIKMSSVPQETPHATSHPAVPITANSLGSHTVTGGTITTNSPETSSRTSGAPVTTAASSLETSRGTSGPPLTMATVSLETSKGTSGPPVTMATDSLETSTGTTGPPVTMTTGSLEPSSGASGPQVSSVKLSTMMSPTTSTNASTVPFRNPDENSRGMLPVAVLVALLAVIVLVALLLLWRRRQKRRTGALVLSRGGKRNGVVDAWAGPAQVPEEGAVTVTVGGSGGDKGSGFPDGEGSSRRPTLTTFFGRRKSRQGSLAMEELKSGSGPSLKGEEEPLVASEDGAVDAPAPDEPEGGDGAAP | – | no binding | no binding | –
5 | sPSL.T7 co-expressed with 3/4FT and PACE (PACE-cleaved soluble P-selectin ligand) (ligand, not shown: large carriers, glycosylated; co-expressed with 3/4FT, also called PACE-cleaved P-selectin ligand; CP/PSL-T7 (R4.1) product) QATEYEYLDYDFLPETEPPEMLRNSTDTTPLTGPGTPESTTVEPAARRSTGLDAGGAVTELTTELANMGNLSTDSAAMEIQTTQPAATEAQTTPLAATEAQTTRLTATEAQTTPLAATEAQTTPPAATEAQTTQPTGLEAQTTAPAAMEAQTTAPAAMEAQTTPPAAMEAQTTQTTAMEAQTTAPEATEAQTTQPTATEAQTTPLAAMEALSTEPSATEALSMEPTTKRGLFIPFSVSSVTHKGIPMAASNLSV | – | – | – | ~2
